Measured values taken from patent publication US20250145697A1 (WASHINGTON UNIVERSITY, published 2025).

T1: murine ApoE (mouse, UniProt P08226 19-311)
T1 sequence (looked up): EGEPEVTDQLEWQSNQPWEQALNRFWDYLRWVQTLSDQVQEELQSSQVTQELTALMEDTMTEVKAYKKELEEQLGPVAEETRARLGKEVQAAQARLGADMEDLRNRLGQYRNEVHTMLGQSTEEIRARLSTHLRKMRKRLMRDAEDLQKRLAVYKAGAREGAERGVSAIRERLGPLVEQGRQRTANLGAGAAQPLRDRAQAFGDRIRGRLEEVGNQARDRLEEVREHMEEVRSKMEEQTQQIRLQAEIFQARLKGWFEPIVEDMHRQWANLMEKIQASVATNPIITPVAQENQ


Columns and labels:
murine ApoE [1] = target: T1, murine ApoE; test: not described
[2] = target: T2, heat-induced aggregates of ApoE4 (human, UniProt P02649 19-317); test: ELISA: ApoE4 incubated at 40 C for 24 hr on the plate, antibody titrated, OD650
T2 construct: mature; aggregated state of the recombinant protein; also called ApoE4 incubated at 40 C for 24 hr; heat-treated ApoE4
Procedure: (§1) 1: untreated ApoE4. 2: ApoE4 that has been incubated at 40° C. for 24 hr. Supernatant(S) and pellet (P) from ultracentrifugation were resolved on SDS-PAGE and stained by Coomassie blue. (D) Binding of HJ156 to different preparations of ApoE4 loaded at the same concentration on the ELISA plate. Sup of untreated: Supernatant fraction of untreated ApoE4 from ultracentrifugation. Sup/Pel of 24h 40C: Supernatant/pellet fraction of ApoE4 incubated at 40° C. for 24 hour. (E) Binding of HJ156 to untreated and 40° C. incubated ApoE4 with and without denaturation by 1% SDS or 4M guanidine HCl.
(§2) In order to test whether HJ151 and HJ156 bind to some form of ApoE in the brain, unfixed frozen brain sections from APPPS1/APOE4 or APPPS1/EKO mice using HJ151 and HJ156 (FIG. 38A). The presence of Aβ plaques was confirmed with Aβ immunostaining using anti-Aβ antibody HJ3.4 on the sections from the same brain. […] Next, the ability of HJ156 to bind to an aggregated form of ApoE induced by incubation at 40° C. was queried. The binding of untreated ApoE to HJ151, HJ153 or HJ156 was compared to the binding of ApoE incubated at 40° C. to HJ151, HJ153 or HJ156. HJ153 bound to untreated ApoE or ApoE incubated at 40° C. similarly while HJ151 and HJ156 preferentially bound to ApoE incubated at 40° C. (FIG. 38B). […] Solubilization of the ApoE aggregates reduced their binding to HJ156. […]

[3] = target: T3, recombinant alipidated human ApoE3 (human, UniProt P02649 19-317); test: ELISA, plate coated with 0.5 ug/ml recombinant apoE3, HRP goat anti-mouse detection, OD450
T3 construct: mature; full length recombinant protein made in E. coli or bought
Procedure: (§3) ELISA plates were coated with 0.5 μg/ml of recombinant apoE2 (square), apoE3 (open circle), or apoE4 (closed circle). Then different concentrations of (A) HJ151, (B) HJ153, (C) HJ154, or (D) HJ156 were loaded on the plates. Horse-radish peroxidase labeled goat anti-mouse secondary antibodies were used to detect binding. […] HJ151 is specific for ApoE4 and HJ156 binds only ApoE3 and ApoE4. FIG. 5E-H are graphs depicting surface plasmon resonance profiles for various antibodies. Anti-ApoE antibodies were serially diluted 3-fold (starting at 100 nM for HJ153 (E), and 1000 nM for HJ151 (F), and […] (G)) for detection of binding to biotinylated-recombinant apoE4 captured on a streptavidin chip. Samples were injected at a flow rate of 30 μl/minute. (H) Apparent KD values of HJ151, HJ153 and HJ156 were calculated based on the SPR experiment.
(§4) ELISA plates were coated with 0.5 μg/ml of recombinant apoE2, apoE3, or apoE4. Then different concentrations of HJ151 (FIG. 5A), HJ153 (FIG. 5B), HJ154 (FIG. 5C), or HJ156 (FIG. 5D) were loaded on the plates. Horse-radish peroxidase labeled goat anti-mouse secondary antibodies were used to detect binding. […] HJ151 is specific for ApoE4 and HJ156 binds only ApoE3 and ApoE4. Surface plasmon resonance profiles for various antibodies was also performed.

[4] = target: T2, heat-induced aggregates of ApoE4; test: ELISA: pellet fraction of ApoE4 incubated at 40 C for 24 h loaded at the same concentration on the plate, HJ156 titrated, OD650
[5] = target: T2, heat-induced aggregates of ApoE4; test: ELISA: ApoE4 incubated at 40 C for 24 h, no denaturant, on the plate, HJ156 titrated, OD650
Procedure: as §1, §2
Target sequence in this assay (P02649 19-317 C130R): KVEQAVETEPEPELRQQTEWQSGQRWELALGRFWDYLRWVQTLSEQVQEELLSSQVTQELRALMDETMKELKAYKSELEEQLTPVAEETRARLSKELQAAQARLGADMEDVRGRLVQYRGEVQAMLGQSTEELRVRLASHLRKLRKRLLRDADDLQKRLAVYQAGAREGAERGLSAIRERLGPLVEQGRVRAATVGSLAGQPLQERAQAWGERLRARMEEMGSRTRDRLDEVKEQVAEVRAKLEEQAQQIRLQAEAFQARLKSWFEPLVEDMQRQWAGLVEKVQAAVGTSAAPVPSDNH

[6] = target: T4, recombinant alipidated human ApoE2 (human, UniProt P02649 19-317); test: ELISA, plate coated with 0.5 ug/ml recombinant apoE2, HRP goat anti-mouse detection, OD450
T4 construct: mature; full length recombinant protein made in E. coli or bought
Procedure: as §3, §4

murine ApoE [7] = target: T1, murine ApoE; test: Western blot of mouse brain lysates
Description: Brain lysates from apoE KO mice or mice expressing human apoE3, human apoE4 or murine apoE were immunoblotted with HJ151, HJ152, HJ153, and HJ154. A commercial apoE antibody GA-50 was used as a positive control.

[8] = target: T5, heat-induced aggregates of ApoE2 (human, UniProt P02649 19-317); test: ELISA: pellet of heat-aggregated ApoE2 coated at 0.5 ug/ml, antibody titrated, HRP goat anti-mouse IgG, OD650
T5 construct: mature; aggregated state of the recombinant protein; also called heat treated ApoE2
T5 sequence (P02649 19-317 R176C): as the sequence (P02649 19-317 C130R) above, with R112C, R158C counted along it
Procedure: The aggregated ApoE was induced by incubating ApoE at 1 mg/ml concentration at 40° C. for 24 hours. The aggregates then were recovered in the pellet fraction following ultracentrifugation at 186,000 g for 1 hour. For ELISA, the untreated ApoE or heat-induced aggregates of ApoE were coated directly to ELISA plates at 0.5 μg/ml overnight at 4° C. After three washes with PBS, the wells were blocked with 1% BSA-PBS for 1 hour at room temperature with shaking at 500 rpm. The blocked wells were washed once with PBS and subsequently loaded with antibodies at serial concentrations (starting at 100 nM with 5-fold dilutions thereafter). Bound antibodies were detected with HRP-labeled goat anti-mouse IgG (Jackson Immunoresearch) and visualized with TMB substrate at OD₆₅₀ (reaction stopped with BioFX stop solution).

| binding result (murine ApoE [1]) | EC50 (read off the curve) [2] [nM] | EC50 (read off the curve) [3] [nM] | EC50 (read off the curve) [4] [nM] | EC50 (read off the curve) [5] [nM] | EC50 (read off the curve) [6] [nM] | binding result (murine ApoE [7]) | EC50 (read off the curve) [8] [nM] | Binder |
| --- | --- | --- | --- | --- | --- | --- | --- | --- |
| no binding | ~0.2 |  |  |  |  |  |  | HJ151 (antibody, V domains shown, murine monoclonal antibody from hybridoma; also called HJ151B (biotinylated)) VH: QVQLQQSGAELVRPGASVTLSCKASGYTFTDYEMHWVKQTPVHGLEWIGVIDPEKGGTAYNQKFKGKAILTADKSSSTAYMDLRSLTSEDSAVYYCLKDSWGQGTTLTVSS VL: DVLMTQTPLSLPVSLGDQASISCRSSQTIVHSDGNTYLEWYLQKPGQSPKLLIYKVSNRFSGVPDRFSGSGSGTYFTLKISRVEAEDLGVYYCFQGSHVPCTFGGGTKLEIKR |
| no binding |  | ~0.9 | ~0.1 | ~0.1 |  |  |  | HJ156 (antibody, V domains shown, murine monoclonal antibody from hybridoma; also called HJ156B (biotinylated)) VH: QVQLQQSGPELVKPGASVKISCKASGYIFTDYYINWVKRRPGQGLEWIGWIFPGSGVSYYNEQFKGKATLTVDKPSNTAYIFLSRLTSEDSAVYFCARYYSSSPFAYWGQGTLVTVSA VL: DVLMTQTPLSLPVSLGDQASISCRSSQNIIHSNGNTYLEWFLQRPGQSPELLIYKVSNRFSGVPDRFSGSGSGTDFTLKISRVEAEDLGVYYCFQGSHVPYTFGGGTKLEIKR |
|  |  |  |  |  | ~0.3 | no binding | 0.16 to 0.2 | HJ154 (antibody, V domains shown, murine monoclonal antibody from hybridoma; also called HJ154B (biotinylated)) VH: QVQLQQPGTEFVMSGASVMLSCKASGYIFTNYWLHWVKQRPGHGLEWIGEIDPSDSYSICNDNFKGKSTLTVDKSSSTAYMQLSSLTSEDSAVYYCAGSLGRVGLAYWGQGTLVTVST VL: QIVLTQSPAIMSASPGEKVTMSCSASSSVSNMYWYQQKPGSSPKSWIYRTSNLASGVPARFSGSGSGTSYSLTISNMEAEDAATYYCQHYQNYPLTFGAGTKLELKR |
